The values that follow come from publication PMC5691159 (Nature Communications, 2017).

A value given as a limit tells only on which side of the number the result lay.

In test [1] the target is PfRh5 (Plasmodium falciparum) (UniProt Q8IFM5). The settings on record: cited from earlier work.
The target in test [2] is recombinant Cyclophilin B (Sino Biological) (human). The test can be described thus: SPR; Biacore T200, 25 °C; CypB (200 RU) amine-coupled on CM5 chip; analyte injected at 30 µl/min; running buffer 50 mM HEPES, 150 mM NaCl, 5 mM MgCl2, pH 7.4; 1:1 (Langmuir) model.
The target of test [3] is PfRhopH3 on the P. falciparum merozoite surface (P. falciparum (endogenous in merozoites)) (UniProt Q8I395). The test can be described thus: immunostaining of cells or tissue; free merozoites incubated with 25 µM Cyclophilin B for 2 h at RT, with or without pre-incubation with rabbit anti-PfRhopH3 or anti-Rap2b antibody (1:25, 15 min); bound CypB stained and its fluorescence intensity measured by confocal microscopy (mean of ten merozoites).

Test [4] concerns the target T1, PfRh5 protein (P. falciparum, UniProt Q8IFM5 25-526).
T1 sequence: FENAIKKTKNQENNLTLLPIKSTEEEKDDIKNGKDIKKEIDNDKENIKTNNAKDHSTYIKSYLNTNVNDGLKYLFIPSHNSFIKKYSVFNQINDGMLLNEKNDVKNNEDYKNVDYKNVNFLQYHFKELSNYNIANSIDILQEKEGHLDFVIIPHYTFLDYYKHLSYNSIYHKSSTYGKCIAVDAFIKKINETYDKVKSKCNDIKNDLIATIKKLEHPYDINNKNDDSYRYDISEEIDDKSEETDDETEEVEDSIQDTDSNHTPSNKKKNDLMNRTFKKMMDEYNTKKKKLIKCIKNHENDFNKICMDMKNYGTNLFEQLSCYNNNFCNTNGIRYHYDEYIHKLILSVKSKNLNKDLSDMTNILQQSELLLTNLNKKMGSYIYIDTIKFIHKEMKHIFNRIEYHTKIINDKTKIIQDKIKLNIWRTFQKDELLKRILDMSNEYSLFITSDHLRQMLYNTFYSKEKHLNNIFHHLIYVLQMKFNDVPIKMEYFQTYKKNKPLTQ
The test can be described thus: SPR; Biacore T200, 25 °C; […]; running buffer 50 mM HEPES, 150 mM NaCl, 5 mM MgCl2, pH 7.4; 1:1 model. The settings on record: both partners purified. Background: Surface plasmon resonance follows binding to a sensor surface in real time, without labels.

The target of test [5] is recombinant Cyclophilin B (Sino Biological) (human). Put plainly: SPR; Biacore T200, 25 °C; […]; running buffer 50 mM HEPES, 150 mM NaCl, 5 mM MgCl2, pH 7.4; 1:1 (Langmuir) model.

Sequence of PfRhopH3 on the P. falciparum merozoite surface (P. falciparum (endogenous in merozoites)) (Q8I395 25-897): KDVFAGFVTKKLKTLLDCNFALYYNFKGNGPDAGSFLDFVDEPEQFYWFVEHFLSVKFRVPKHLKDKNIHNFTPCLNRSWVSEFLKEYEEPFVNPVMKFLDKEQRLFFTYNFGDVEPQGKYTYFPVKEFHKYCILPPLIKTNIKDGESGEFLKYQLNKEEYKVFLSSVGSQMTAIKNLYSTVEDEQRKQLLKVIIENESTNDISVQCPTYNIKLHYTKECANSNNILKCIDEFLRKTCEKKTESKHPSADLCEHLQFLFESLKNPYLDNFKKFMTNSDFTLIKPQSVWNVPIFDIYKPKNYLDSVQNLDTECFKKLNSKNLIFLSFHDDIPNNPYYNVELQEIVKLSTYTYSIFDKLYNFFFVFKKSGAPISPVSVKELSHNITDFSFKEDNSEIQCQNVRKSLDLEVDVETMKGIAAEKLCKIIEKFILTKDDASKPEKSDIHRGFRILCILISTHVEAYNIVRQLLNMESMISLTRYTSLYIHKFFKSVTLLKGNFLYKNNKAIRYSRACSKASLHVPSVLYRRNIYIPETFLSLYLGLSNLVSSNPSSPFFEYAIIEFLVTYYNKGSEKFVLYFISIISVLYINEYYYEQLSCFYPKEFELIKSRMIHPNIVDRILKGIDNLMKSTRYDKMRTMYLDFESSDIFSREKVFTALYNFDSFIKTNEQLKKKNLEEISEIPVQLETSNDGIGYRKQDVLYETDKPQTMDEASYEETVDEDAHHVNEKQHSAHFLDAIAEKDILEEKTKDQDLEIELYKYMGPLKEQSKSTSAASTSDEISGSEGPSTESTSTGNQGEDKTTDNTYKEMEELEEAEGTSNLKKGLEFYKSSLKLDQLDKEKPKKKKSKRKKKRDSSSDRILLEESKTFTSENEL

With Basigin (from UniProt P35613), in test [1], the Kd was 1120 nM.

As to “recombinant Basigin (BSG/CD147, Sino Biological) (from UniProt P35613 138-325) (receptor)”, in test [2], the Kd came out at 430 nM.

In the case of “recombinant Cyclophilin B (Sino Biological) (natural protein)”, the reduction of binding to merozoites after treatment with anti-RhopH3-C antibody in test [3] was > 50%.

B1: recombinant PfRhopH3-C protein (aa 617–865) with C-terminal hexa-Histidine tag (domain or fragment)
chain: QLSCFYPKEFELIKSRMIHPNIVDRILKGIDNLMKSTRYDKMRTMYLDFESSDIFSREKVFTALYNFDSFIKTNEQLKKKNLEEISEIPVQLETSNDGIGYRKQDVLYETDKPQTMDEASYEETVDEDAHHVNEKQHSAHFLDAIAEKDILEEKTKDQDLEIELYKYMGPLKEQSKSTSAASTSDEISGSEGPSTESTSTGNQGEDKTTDNTYKEMEELEEAEGTSNLKKGLEFYKSSLKLDQLDKEKP
On to B1, for which the Kd in test [4] is 18 nM; in test [5] it was 160 nM.

The term Kd denotes the concentration at which binding is half-saturated.
